Test results: US20180016352A1 (published 2018)

What was measured:
Assay in all cases: indirect ELISA, recombinant receptor coated, anti-c-myc HRP
[1] = biological target: recombinant EphA2 receptor (UniProt P29317 25-534, limits assumed)
Experimental: (§1) The target binding of the BsAbs was evaluated by indirect ELISA methods using PEG polymer and recombinant target proteins immobilized on ELISA plates. Individual wells of a 96 well Maxisorp plate were coated with 100 μL of 10 μg/mL of polymer (polyethylene glycol monomethyl ether methacrylate) or 10 μg/mL of target recombinant receptor (EphA2, VEGFR2, Mesothelin and EGFR) for 16-20 hr at 4C. PEG and target receptors were diluted in phosphate buffered saline (PBS pH 7.4). […] The blocker was decanted and 100 μL of BsAb, either in cell culture supernatant or purified protein stored in PBS, was added to each well. The BsAb was incubated for 2 hr and then decanted. The wells were washed five times manually in PBST and 100 μL of HRP labeled anti-c-myc antibody diluted 1/5000 in blocker was added to each well and incubated for 30 mins. The c-myc antibody was then decanted and the wells washed again five times manually with PBST. One hundred microliters of TMB was added to all wells and incubated for 10-15 mins or until adequate color development was identified. The TMB colorimetric reaction was neutralized by adding 100 μL of 2M sulfuric acid. The colorimetric reactions in each well was analyzed at an absorbance of 450 nm using the Spectramax plate reader.

recombinant Mesothelin = recombinant Mesothelin (UniProt Q13421 296-580, limits assumed)
Experimental: as §1

recombinant EGFR = biological target: T1, recombinant EGFR (UniProt P00533 25-645, limits assumed)
T1 construct: It may be the same reagent as rEGFR-hFc; also called rEGFR
Experimental: as §1

Chain of recombinant EphA2 receptor (P29317 25-534 limits assumed): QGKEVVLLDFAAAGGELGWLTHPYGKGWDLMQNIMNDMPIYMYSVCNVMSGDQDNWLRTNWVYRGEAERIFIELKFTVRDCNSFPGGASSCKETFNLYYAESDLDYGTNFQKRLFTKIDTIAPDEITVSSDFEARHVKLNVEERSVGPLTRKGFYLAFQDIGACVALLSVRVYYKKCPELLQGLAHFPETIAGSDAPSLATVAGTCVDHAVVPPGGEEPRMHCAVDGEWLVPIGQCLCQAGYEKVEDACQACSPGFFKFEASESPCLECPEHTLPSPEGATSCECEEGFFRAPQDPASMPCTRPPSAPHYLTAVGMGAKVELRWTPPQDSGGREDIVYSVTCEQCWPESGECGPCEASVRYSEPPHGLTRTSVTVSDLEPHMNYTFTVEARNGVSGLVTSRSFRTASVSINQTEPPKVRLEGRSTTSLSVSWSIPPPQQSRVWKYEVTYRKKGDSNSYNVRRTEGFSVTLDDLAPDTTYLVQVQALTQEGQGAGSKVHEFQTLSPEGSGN
Chain of recombinant Mesothelin (Q13421 other isoform, or with tags, fused parts or gaps limits assumed): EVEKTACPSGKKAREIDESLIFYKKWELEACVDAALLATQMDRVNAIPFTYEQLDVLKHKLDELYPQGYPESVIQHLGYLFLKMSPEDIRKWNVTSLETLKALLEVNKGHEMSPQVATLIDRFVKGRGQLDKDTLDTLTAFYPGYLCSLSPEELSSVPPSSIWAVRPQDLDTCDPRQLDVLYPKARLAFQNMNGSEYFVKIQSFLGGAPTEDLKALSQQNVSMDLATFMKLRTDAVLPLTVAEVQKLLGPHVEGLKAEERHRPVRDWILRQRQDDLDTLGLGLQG

- binding result [1]: no binding
- binding result (recombinant Mesothelin): no binding
- binding result (recombinant EGFR): no binding
B1: VEGF-15.2 (BsAb targeting VEGFR2) (other)
chain: HHHHHHEVVKFMDVYQRSYCHPIETLVDIFQEYPDEIEYIFKPSCVPLMRCGGCCNDEGLECVPTEESNITMQIMRIKPHQGQHIGEMSFLQHNKCECRPKKDGSTSGSGKSSEGKGEVVKFMDVYQRSYCHPIETLVDIFQEYPDEIEYIFKPSCVPLMRCGGCCNDEGLECVPTEESNITMQIMRIKPHQGQHIGEMSFLQHNKCECRPKKDSGGGGSEVKLEESGGGLVQPGGSMKLSCVASGFTFSNYWMNWVRQSPEKGLEWVTEIRSKSNNYATHYAESVKGRFTISRDDSKGSVYLQMNNLRAEDTGIYYCSNRYYWGQGTLVTVSAGGGGSGGGGSGGGGSDIVMTQSHKFMSTSVRDRVTITCKASQDVNTSVAWYQQKPGQSPKLVIYWASTRHTGVPDRFTGSGSGTDFTLTISNVQSEDLADYFCLQYINYPYTFGGGTKLEIKEQKLISEEDLN
